Reference: article PMC6628420

Target: CD11b, cellular receptor of LukAB, on PMNs (HL-60 cells differentiated with DMSO) (human (endogenous in HL-60)) (UniProt P11215)

| Substance | reversal of the toxicity of 0.42 nM LukABWT on PMNs by the mutant (0.4 pM-13 nM), set up as competition with LukABWT for receptor binding; mutant/WT molar ratio at 50% reversal (mutant/WT molar ratio) |
| --- | --- |
| LukAB heterodimer LukA wild type / LukB with the N-terminal 30 residues of HlgB (complex) | 0.18 |
| LukAB heterodimer LukA D39A / LukB R23E (complex) | 0.17 |
| LukAB heterodimer LukA D39R / LukB R23E (complex) | > 30 |
| LukAB heterodimer LukA wild type / LukB K12A/K19A/R23A (complex) | > 30 |
| LukAB heterodimer LukA wild type / LukB R23E (complex) | 0.64 |
